T1: pig TF ECD-His (TF-His) protein (pig (Sus scrofa))
T1 construct: also called pig TF-His; pTF
T1 chain: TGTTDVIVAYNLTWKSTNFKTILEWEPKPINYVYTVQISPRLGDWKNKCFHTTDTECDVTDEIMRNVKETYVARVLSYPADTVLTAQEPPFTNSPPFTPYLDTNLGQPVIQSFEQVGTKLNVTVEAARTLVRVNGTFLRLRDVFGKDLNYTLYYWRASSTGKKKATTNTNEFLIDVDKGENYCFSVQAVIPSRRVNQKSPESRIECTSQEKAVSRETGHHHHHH


What was measured:
[1] = target: T1, pig TF ECD-His (TF-His) protein; assay: Biacore; antibody captured by anti-human IgG on CM5 chip, titration of pig TF-His, 1:1 model
Procedure: The ability of certain antibodies was tested for binding to pig TF. For pig TF Biacore-based measurements, a given anti-TF antibody was captured by an anti-human IgG antibody covalently coupled to a CM5 chip (GE Healthcare Bio-Sciences). Association between the anti-TF antibodies and a five-point three-fold titration of pig TF-His starting at 100 nM was measured for 180 to 240 sec. Subsequently, dissociation between the anti-TF antibody and TF-His was measured for 1800 sec. Kinetic data was analyzed and fitted globally using a 1:1 binding model.

[2] = target: T2, rabbit TF ECD-His (TF-His) protein (rabbit (Oryctolagus cuniculus), UniProt P24055 33-250); assay: Biacore; antibody captured by anti-human IgG on CM5 chip, titration of rabbit TF-His, 1:1 model
T2 construct: also called rabbit TF-His
Procedure: The ability of certain antibodies was tested for binding to rabbit TF. For rabbit TF Biacore-based measurements, a given anti-TF antibody was captured by an anti-human IgG antibody covalently coupled to a CM5 chip (GE Healthcare Bio-Sciences). Association between the anti-TF antibodies and a five-point three-fold titration of rabbit TF-His starting at 100 nM was measured for 180 to 240 sec. Subsequently, dissociation between the anti-TF antibody and TF-His was measured for 1800 sec. Kinetic data was analyzed and fitted globally using a 1:1 binding model.

[3] = target: T3, human Tissue Factor (hTF) (human, UniProt P13726 33-295); assay: cell-based or functional assay
[4] = target: T3, human Tissue Factor (hTF); assay: cell-based or functional assay; remark: listed apart in the source

T2 sequence (P24055 other isoform, or with tags, fused parts or gaps): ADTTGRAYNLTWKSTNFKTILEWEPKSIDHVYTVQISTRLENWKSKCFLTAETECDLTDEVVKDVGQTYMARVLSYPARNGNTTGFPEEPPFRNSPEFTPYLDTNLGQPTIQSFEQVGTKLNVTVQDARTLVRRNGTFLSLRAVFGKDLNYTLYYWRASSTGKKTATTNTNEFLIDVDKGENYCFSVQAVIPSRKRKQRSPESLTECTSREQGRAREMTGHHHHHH

Binder	Kd [1] [nM]	Kd [2] [nM]	IC50, cell viability of A431 cells, Primary ADC, Continuous (FIG. 20A) [3] [nM]	IC50, cell viability of HPAF-II cells, Primary ADC, Continuous (FIG. 22E) [3] [nM]	IC50, cell viability of MDA-MB-231 cells, Primary ADC, Continuous (FIG. 22D) [3] [nM]	IC50, cell viability of A431 cells, Primary ADC, 4 hr, followed by washout (FIG. 20B) [4] [nM]	IC50, cell viability of A431 cells, Primary ADC, 4 hr, followed by washout, absence of FVIIa (FIG. 21A) [4] [nM]
anti-TF antibody 25G (antibody, human IgG1, V domains shown, Human IgG1) VH: QVQLVQSGAEVKKPGASVKVSCKASGYTFRSYGISWVRQAPGQGLEWMGWVAPYNGNTNYAQKLQGRVTMTTDTSTSTAYMELRSLRSDDTAVYYCARDAGTYSPYGYGMDVWGQGTTVTVSS VL: DIQMTQSPSTLSASVGDRVTITCRASQSISSWLAWYQQKPGKAPKLLIYKASSLESGVPSRFSGSGSGTEFTLTISSLQPDDFATYYCQQFQSLPPFTFGGGTKVEIK	26	75.5					
anti-TF antibody 25G9 (antibody, human IgG1, V domains shown, Human IgG1) VH: QVQLVQSGAEVKKPGASVKVSCKASGYTFRSYGISWVRQAPGQGLEWMGWVAPYSGNTNYAQKLQGRVTMTTDTSTSTAYMELRSLRSDDTAVYYCARDAGTYSPYGYGMDVWGQGTTVTVSS VL: DIQMTQSPSTLSASVGDRVTITCQASQSIDSWLAWYQQKPGKAPKLLIYSASYLESGVPSRFSGSGSGTEFTLTISSLQPDDFATYYCQRFQSLPPFTFGGGTKVEIK	3.3	4.2					
anti-TF antibody 43D8 (antibody, human IgG1, V domains shown, Human IgG1) VH: QVQLQQWGAGLLKPSETLSLTCAVYGGSLSGYYWSWIRQPPGKGLEWIGEIGASGSTRYNPSLKSRVTISVDTSKNQFSLKLSSVTAADTAVYYCARDTPYYYEGGYYYYMDVWGKGTTVTVSS VL: EIVLTQSPGTLSLSPGERATLSCRASQSVSSSFLAWYQQKPGQAPRLLIYGAYSRATGIPDRFSGSGSGTDFTLTISRLEPEDFAVYYCQQAGVVPYTFGGGTKVEIK	19.2	7.7					
43Ea-vc-MMAE (antibody, IgG1, V domains shown, MC-vc-PAB-MMAE on cysteines of the partially reduced antibody (chain and positions not stated), DAR 3-4) VH: QVQLQESGPGLVKPSQTLSLTCTVSGGSISSGQYWSWIRQHPGKGLEWIGEIYYSGSTRYNPSLKSRVTISVDTSKNQFSLKLSSVTAADTAVYYCARDTPYYYDGGYYYYMDVWGKGTTVTVSS VL: EIVLTQSPGTLSLSPGERATLSCRASQSVSSSYLAWYQQKPGQAPRLLIYGASSRATGIPDRFSGSGSGTDFTLTISRLEPEDFAVYYCQQVGVVPYTFGGGTKVEIK			0.09	0.06	0.15	0.43	0.24
anti-TF antibody 43B1 conjugated to MC-vc-PAB-MMAE (antibody, IgG1, V domains shown, MC-vc-PAB-MMAE on cysteines of the partially reduced antibody (chain and positions not stated), DAR 3-4) VH: QVQLQESGPGLVKPSQTLSLTCTVSGGSISSGQYWSWIRQHPGKGLEWIGEIYYSGSTRYNPSLKSRVTISVDTSKNQFSLKLSSVTAADTAVYYCARDAPYYYGGGYYYYMDVWGKGTTVTVSS VL: EIVLTQSPGTLSLSPGERATLSCRASESVDSSYLAWYQQKPGQAPRLLIYGASTRQTGIPDRFSGSGSGTDFTLTISRLEPEDFAVYYCQQAGVVPYTFGGGTKVEIK			0.08	0.05	0.14	0.36	0.19
anti-TF antibody 43D7 conjugated to MC-vc-PAB-MMAE (antibody, IgG1, V domains shown, MC-vc-PAB-MMAE on cysteines of the partially reduced antibody (chain and positions not stated), DAR 3-4) VH: QVQLQQWGAGLLKPSETLSLTCAVYGGSLSGYYWSWIRQPPGKGLEWIGEIGASGSTRYNPSLKSRVTISVDTSKNQFSLKLSSVTAADTAVYYCARDTPYYYEGGYYYYMDVWGKGTTVTVSS VL: EIVLTQSPGTLSLSPGERATLSCRASDSVDSSYLAWYQQKPGQAPRLLIYGAFSRANGIPDRFSGSGSGTDFTLTISRLEPEDFAVYYCQQAGVVPYTFGGGTKVEIK			0.06	0.05	0.14	0.28	0.14
tisotumab vedotin (TF-011) ADC (antibody, V domains shown, MC-vc-PAB-MMAE on cysteines of the partially reduced antibody (chain and positions not stated), DAR 3-4) VH: EVQLLESGGGLVQPGGSLRLSCAASGFTFSNYAMSWVRQAPGKGLEWVSSISGSGDYTYYTDSVKGRFTISRDNSKNTLYLQMNSLRAEDTAVYYCARSPWGYYLDSWGQGTLVTVSS VL: DIQMTQSPPSLSASAGDRVTITCRASQGISSRLAWYQQKPEKAPKSLIYAASSLQSGVPSRFSGSGSGTDFTLTISSLQPEDFATYYCQQYNSYPYTFGQGTKLEIK			0.05			0.17	
